The numbers were not newly measured in PMC3153048, which cites them from elsewhere.

Data set [1] concerns the target ExsD (Pseudomonas aeruginosa) (UniProt Q9I321).
For data set [2], the target named is ExsE (Pseudomonas aeruginosa) (UniProt Q9I322).
Chain of UniProt Q9I322 (Q9I322 whole entry): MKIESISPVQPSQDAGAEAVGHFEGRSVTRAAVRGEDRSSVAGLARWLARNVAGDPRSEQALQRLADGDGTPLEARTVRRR

Chain of UniProt Q9I321 (Q9I321 whole entry): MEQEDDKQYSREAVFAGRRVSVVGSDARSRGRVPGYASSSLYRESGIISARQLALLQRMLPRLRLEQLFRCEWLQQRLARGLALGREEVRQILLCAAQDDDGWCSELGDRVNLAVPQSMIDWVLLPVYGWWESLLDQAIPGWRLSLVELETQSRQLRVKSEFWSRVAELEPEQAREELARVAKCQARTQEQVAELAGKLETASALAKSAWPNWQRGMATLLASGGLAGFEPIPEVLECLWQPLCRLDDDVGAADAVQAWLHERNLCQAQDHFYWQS

As a reminder, the Kd is the constant that tells how readily two partners part at equilibrium. On to ExsC (from UniProt P26995), for which the Kd is 18 nM in data set [1] and 1 nM in data set [2].
